Consider ten substances from paper PMC3685266.

Assay [1] has as its target SecY_(268Fl)EG (E. coli) (UniProt P0AGA2). In words: other fluorescence titration; fluorescence quench of 5 nM SecY_(268Fl)EG, 1 mM p[NH]ppA, 20 mM Tris/HCl pH 8, 130 mM NaCl, 10% glycerol, 2 mM MgCl2, 0.03% C12E9; SecA titrated 0-1 μM; with 10 mM DTT; one-site fit with linear phase.
The target in assay [2] is SecA_(D337C/E806C), cross-linked (clamp open) (E. coli) (UniProt P10408). As to the kind of experiment: steady-state ATPase activity titration; 80 nM SecA in TKM buffer, 1 mM ATP, increasing vesicles reconstituted with purified SecYEG; without proOmpA; no DTT; Kd from a ligand-binding fit.
Assay [3] deals with SecA_(D337C/K482C), cross-linked (clamp closed) (E. coli) (UniProt P10408). Described as above.
Assay [4] deals with SecA_(Δcys) (E. coli) (UniProt P10408). Described as above.
The target of assay [5] is SecA_(D337C/E806C), cross-linked (clamp open) (E. coli) (UniProt P10408). As to the kind of experiment: steady-state ATPase activity titration; 0.15 μM SecA in TKM buffer (pH 7.5), 1 mM ATP, 0.03% C12E9, 25°C, increasing detergent-solubilised SecYEG; no DTT; apparent Kd from a ligand-binding fit.
Assay [6] concerns the target SecA_(D337C/K482C), cross-linked (clamp closed) (E. coli) (UniProt P10408). The assay is described as above.
Assay [7] addresses SecA_(Δcys) (E. coli) (UniProt P10408). The assay is described as above.
In assay [8] the target is SecA_(D337C/E806C), released with 10 mM DTT (E. coli) (UniProt P10408). In words: steady-state ATPase activity titration; 80 nM SecA in TKM buffer, 1 mM ATP, increasing vesicles reconstituted with purified SecYEG; without proOmpA; with 10 mM DTT; Kd from a ligand-binding fit.
The target of assay [9] is SecA_(D337C/K482C), released with 10 mM DTT (E. coli) (UniProt P10408). The description is as above.
Assay [10] has as its target SecA_(Δcys) (E. coli) (UniProt P10408). The description is as above.
The target in assay [11] is SecA_(D337C/E806C), released with 10 mM DTT (E. coli) (UniProt P10408). As to the kind of experiment: steady-state ATPase activity titration; 0.15 μM SecA in TKM buffer (pH 7.5), 1 mM ATP, 0.03% C12E9, 25°C, increasing detergent-solubilised SecYEG; with 10 mM DTT; apparent Kd from a ligand-binding fit.
Assay [12] addresses SecA_(D337C/K482C), released with 10 mM DTT (E. coli) (UniProt P10408). The description is as above.
The target of assay [13] is SecA_(Δcys) (E. coli) (UniProt P10408). The description is as above.
For assay [14] the target is unchanged. In words: steady-state ATPase activity titration; 0.15 μM SecA in TKM buffer, 1 mM ATP, increasing detergent-solubilised SecYEG, in the presence of 40 μM cardiolipin (CL); no DTT; apparent Kd from a ligand-binding fit.
In assay [15] the target is SecA_(D337C/E806C), cross-linked (clamp open) (E. coli) (UniProt P10408). In words: steady-state ATPase activity titration; 80 nM SecA in TKM buffer, 1 mM ATP, increasing vesicles reconstituted with purified SecYEG; in the presence of 0.6 μM proOmpA_(Δcys); no DTT; Kd from a ligand-binding fit.
Assay [16] concerns the target SecA_(D337C/K482C), cross-linked (clamp closed) (E. coli) (UniProt P10408). The description is as above.
The target in assay [17] is SecA_(Δcys) (E. coli) (UniProt P10408). The assay is described as above.
Assay [18] has as its target SecA_(D337C/E806C), released with 10 mM DTT (E. coli) (UniProt P10408). As to the kind of experiment: steady-state ATPase activity titration; 0.15 μM SecA in TKM buffer, 1 mM ATP, increasing detergent-solubilised SecYEG, in the presence of 40 μM cardiolipin (CL); with 10 mM DTT; apparent Kd from a ligand-binding fit.
Assay [19] deals with SecA_(D337C/K482C), released with 10 mM DTT (E. coli) (UniProt P10408). The assay is described as above.
The target of assay [20] is SecA_(Δcys) (E. coli) (UniProt P10408). The assay is described as above.
For assay [21], the target named is SecA_(D337C/E806C), released with 10 mM DTT (E. coli) (UniProt P10408). As to the kind of experiment: steady-state ATPase activity titration; 80 nM SecA in TKM buffer, 1 mM ATP, increasing vesicles reconstituted with purified SecYEG; in the presence of 0.6 μM proOmpA_(Δcys); with 10 mM DTT; Kd from a ligand-binding fit.
In assay [22] the target is SecA_(D337C/K482C), released with 10 mM DTT (E. coli) (UniProt P10408). Described as above.
Assay [23] has as its target SecA_(Δcys) (E. coli) (UniProt P10408). The description is as above.
Assay [24] addresses SecY_(268Fl)EG (E. coli) (UniProt P0AGA2). As to the kind of experiment: other fluorescence titration; fluorescence quench of 5 nM SecY_(268Fl)EG, 1 mM p[NH]ppA, 20 mM Tris/HCl pH 8, 130 mM NaCl, 10% glycerol, 2 mM MgCl2, 0.03% C12E9; SecA titrated 0-1 μM; no DTT; one-site fit with linear phase.
Assay [25] has as its target SecA_(D337C/K482C), uncross-linked, clamp released from the closed state with 10 mM DTT (E. coli) (UniProt P10408). As to the kind of experiment: SEC; Superose 6 10/300 GL, 20 mM Tris/HCl pH 7.5, 100 mM KCl, with or without 10 mM DTT; column calibrated with gel-filtration standards. (In gel filtration, larger molecules generally elute earlier.)
Assay [26] deals with SecA_(D337C/E806C), uncross-linked, clamp released from the open state with 10 mM DTT (E. coli) (UniProt P10408). The assay is described as above.
Assay [27] has as its target preformed SecA_(Δcys)–SecYEG membrane-bound complex (E. coli) (UniProt P10408). As to the kind of experiment: steady-state ATPase activity titration; 80 nM SecA with 1.08 μM SecYEG reconstituted into E. coli polar lipids in TKM buffer, 1 mM ATP, increasing purified proOmpA_(Δcys); no DTT; Kd from a ligand-binding fit.
Assay [28] concerns the target preformed SecA_(D337C/E806C) (released with DTT)–SecYEG membrane-bound complex (E. coli) (UniProt P10408). As to the kind of experiment: steady-state ATPase activity titration; 80 nM SecA with 1.08 μM SecYEG reconstituted into E. coli polar lipids in TKM buffer, 1 mM ATP, increasing purified proOmpA_(Δcys); with 10 mM DTT; Kd from a ligand-binding fit.
In assay [29] the target is preformed SecA_(D337C/K482C) (released with DTT)–SecYEG membrane-bound complex (E. coli) (UniProt P10408). Described as above.
Assay [30] addresses preformed SecA_(Δcys)–SecYEG membrane-bound complex (E. coli) (UniProt P10408). The assay is described as above.
In assay [31] the target is SecA_(Δcys), SecA without cysteine residues (E. coli) (UniProt P10408). In words: SEC; Superose 6 10/300 GL, 20 mM Tris/HCl pH 7.5, 100 mM KCl, with or without 10 mM DTT; column calibrated with gel-filtration standards.

“SecA_(D337C/E806C), released with 10 mM DTT (from UniProt P10408 1-901) (enzyme)” had a Kd in the assay with SecY_(268Fl)EG (E. coli) [1] of 0.0595 µM.
As for “SecYEG (from UniProt P0AGA2 1-443; P0AG96 1-127; P0AG99 1-110) (complex)”, the Kd in assay [2] came out at 0.65 µM; in [3], 0.029 µM; in the assay with SecA_(Δcys) (E. coli) [4], 1.13 µM; in assay [5], 5.9 µM; in [6] it was 0.015 µM; with SecA_(Δcys) (E. coli) [7], 7.6 µM. The Kd in assay [8] turned out to be 0.65 µM; in assay [9], 0.34 µM; in the assay with SecA_(Δcys) (E. coli) [10] it was 1.11 µM; in assay [11] it was 6 µM; in [12], 6.3 µM; with SecA_(Δcys) (E. coli) [13] it was 7.8 µM. Moreover, the Kd amounted to 0.0037 µM with SecA_(Δcys) (E. coli) [14]; 0.17 µM in assay [15]; 0.025 µM in [16]; 0.26 µM with SecA_(Δcys) (E. coli) [17]; 0.0065 µM in [18]; 0.0088 µM in [19]. The Kd with SecA_(Δcys) (E. coli) [20] was 0.0056 µM; in assay [21] it was 0.13 µM; in [22], 0.13 µM; in the assay with SecA_(Δcys) (E. coli) [23] it was 0.19 µM.
The substance “SecA_(D337C/E806C), cross-linked (clamp open) (from UniProt P10408 1-901) (enzyme)” displayed a Kd in the assay with SecY_(268Fl)EG (E. coli) [24] of 0.0609 µM.
For the substance “SecA_(Δcys) (from UniProt P10408 1-901) (enzyme)”, the Kd with SecY_(268Fl)EG (E. coli) [24] was 0.0184 µM; in the assay with SecY_(268Fl)EG (E. coli) [1], 0.0206 µM.
Turning to “SecA_(D337C/K482C), cross-linked (clamp closed) (from UniProt P10408 1-901) (enzyme)”, the Kd with SecY_(268Fl)EG (E. coli) [24] was 0.0286 µM.
As usually defined, the stoichiometry N is a count of units in the complex or per binding partner. Regarding “SecA_(D337C/K482C), uncross-linked, clamp released from the closed state with 10 mM DTT (from UniProt P10408 1-901) (enzyme)”, the stoichiometry N in assay [25] came out at 2.
As to “SecA_(D337C/E806C), uncross-linked, clamp released from the open state with 10 mM DTT (from UniProt P10408 1-901) (enzyme)”, the stoichiometry N in assay [26] amounted to 2.
As to “proOmpA_(Δcys) (from UniProt P0A910 22-346) (natural protein)”, the Kd in assay [27] came to 0.5 µM; in assay [28] it was 0.35 µM; in [29], 0.24 µM; in assay [30] it was 0.78 µM.
In the assay with SecY_(268Fl)EG (E. coli) [1], “SecA_(D337C/K482C), released with 10 mM DTT (from UniProt P10408 1-901) (enzyme)” returned a Kd of 0.118 µM.
With “SecA_(Δcys), SecA without cysteine residues (from UniProt P10408 1-901) (enzyme)”, the stoichiometry N in assay [31] is 2.
